# Assay results: PMC5882628, “Development of a Cell-Based Assay to Assess Binding of the proNGF Prodomain to Sortilin” (Cellular and Molecular Neurobiology, 2017)
# “Also recorded” adds a separate entry of the source.
# T1: sortilin (Homo sapiens, UniProt Q99523)
# T1 construct: They were transfected with plasmids either encoding wild type sortilin, or sortilin with a mutation that renders it endocytosis deficient; expressed in transfected cells; host or cells: HEK 293 cells, transient transfection (lipofectamine)
# T1 sequence (Q99523 78-831): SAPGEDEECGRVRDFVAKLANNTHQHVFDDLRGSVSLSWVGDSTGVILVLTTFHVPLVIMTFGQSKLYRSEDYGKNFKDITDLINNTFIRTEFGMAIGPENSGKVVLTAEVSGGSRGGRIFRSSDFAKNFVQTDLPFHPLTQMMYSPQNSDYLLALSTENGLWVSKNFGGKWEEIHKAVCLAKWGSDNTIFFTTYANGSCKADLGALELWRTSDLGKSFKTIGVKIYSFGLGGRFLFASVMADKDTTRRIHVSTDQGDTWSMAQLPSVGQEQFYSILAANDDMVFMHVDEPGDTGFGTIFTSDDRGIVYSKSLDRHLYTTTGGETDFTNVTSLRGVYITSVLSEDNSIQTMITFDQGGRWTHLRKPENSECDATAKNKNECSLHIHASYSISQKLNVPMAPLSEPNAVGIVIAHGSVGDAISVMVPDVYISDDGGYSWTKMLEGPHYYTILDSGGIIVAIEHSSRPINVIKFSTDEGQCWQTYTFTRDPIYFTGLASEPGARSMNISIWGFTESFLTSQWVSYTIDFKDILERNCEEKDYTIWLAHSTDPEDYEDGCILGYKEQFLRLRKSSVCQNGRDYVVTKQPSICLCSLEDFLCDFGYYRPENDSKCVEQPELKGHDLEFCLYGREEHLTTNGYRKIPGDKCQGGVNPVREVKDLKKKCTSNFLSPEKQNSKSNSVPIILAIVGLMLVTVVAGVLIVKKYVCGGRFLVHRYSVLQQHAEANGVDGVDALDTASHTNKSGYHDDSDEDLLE
# Experiments:
# [1] = biological target: T1, sortilin; assay: GSTpro binding to wt sortilin-transfected HEK293 cells, staining without detergent permeabilization; format: cell-based; conditions: versus staining with detergent, Fig. 6a vs 6b
# Protocol: HEK 293 cells were grown in DMEM with 10% fetal bovine serum. They were transfected with plasmids either encoding wild type sortilin, or sortilin with a mutation that renders it endocytosis deficient, or an empty control vector according to manufacturer’s instructions using 20 µg lipofectamine (Thermo Fischer Scientific) with 8 µg DNA on […] per 6 cm, poly-lysine coated dish. The cells were initially plated into 24-well dishes after transfection. That intermediate step rendered more uniform cell numbers in the 96-well dishes that were used to run the actual assay. 24 h later, cells were split into black opaque-walled, clear-bottom 96 well dishes at 42000 cells in 80 µl medium/well. […]
# The fixed cells were washed with PBS for 15 min, followed by two 15 min washes with PBS with 0.1% Triton X-100. […] Wells to be evaluated for blocking of the sortilin-GSTpro interaction by antibodies were only stained with an antibody against the pro domain of proNGF in 10% FBS at a dilution of 1:1500 (Millipore (N-term) clone EPI318Y, Rabbit Monoclonal Antibody Catalog Number: #04-1142). […]
# The following day, wells were washed 3 × 15 min with PBS/0.1% Triton X-100. […] Cellular fluorescence was quantified using an array scanner and the “Neuronal Profiler” Bioapplication (Thermo Fisher Scientific) as described below.
# [2] = Precipitation and sticking to culture dishes; reagent stability; format: physicochemical; conditions: GSTpro versus proNGF
# From the text: This behavior led to more diffuse staining compared to GSTpro. […] Given the complications driven by the biophysical properties of proNGF, we pursued GSTpro as a source of the pro binding domain.
# Due to reasons of stability of the proNGF protein and the specificity of binding, we recommend use of GSTpro in the assay, rather than recombinant proNGF. […] Although not formally tested by us, there may have been inconsistencies in the batches of proNGF protein used in the studies. As extracellular fluorescence could increase false positive cells by automated detection, proNGF was less reliable as a reagent in our assay (not shown). Both GSTpro and proNGF compete for binding to the sortilin receptor, it is likely that their binding sites are similar or at least overlap. Detection with GSTpro was more specific than with proNGF. […] The assay has the potential to use a tenfold lower concentration of GSTpro (5 nM, cf. Fig. 6v).
molecule,measurement,setting,value
"GSTpro: fusion of Glutathione S-transferase (GST) merged at the C-terminal of GST to the pro part (19–121) of human proNGF (protein, left off: GST, N-terminal, kept, fusion of Glutathione S-transferase (GST) merged at the C-terminal of GST to the pro part (19–121) of human proNGF) EPHSESNVPAGHTIPQAHWTKLQHSLDTALRRARSAPAAAIAARVAGQTRNITVDPRLFKKRRLRSPRVLFSTQPPREAADTQDLDFEVGGAAPFNRTHRSKR",reduction of GSTpro signal without permeabilization,[1]; cells expressing sortilin below the set threshold,less than half reduced
same,reduction of GSTpro signal without permeabilization,[1]; sortilin-positive cells,almost fourfold reduced; also recorded: much lower GSTpro signal
same,stability compared to proNGF (in words),[2],more stable than proNGF
